T1: A. fulgidus RbcL2 (Archaeoglobus fulgidus, UniProt O28635)
T1 construct: gene rbcL; recombinant in E. coli BL-21(DE3) from pET11a, untagged, purified anaerobically to homogeneity; homodimer
T1 sequence (O28635 1-441): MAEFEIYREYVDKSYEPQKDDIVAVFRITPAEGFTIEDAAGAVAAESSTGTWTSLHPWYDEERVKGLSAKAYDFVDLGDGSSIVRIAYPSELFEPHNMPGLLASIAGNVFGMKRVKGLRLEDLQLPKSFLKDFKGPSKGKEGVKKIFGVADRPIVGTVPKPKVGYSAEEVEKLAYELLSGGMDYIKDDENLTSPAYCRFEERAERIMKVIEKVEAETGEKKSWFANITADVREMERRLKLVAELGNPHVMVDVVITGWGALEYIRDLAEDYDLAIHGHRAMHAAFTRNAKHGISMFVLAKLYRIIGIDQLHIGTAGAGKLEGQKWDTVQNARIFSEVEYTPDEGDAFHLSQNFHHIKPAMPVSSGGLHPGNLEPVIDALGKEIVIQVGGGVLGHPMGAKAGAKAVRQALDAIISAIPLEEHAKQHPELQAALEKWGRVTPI


How the values were obtained:
A. fulgidus RbcL2 [1] = target: T1, A. fulgidus RbcL2; assay: radiometric […]-bicarbonate carboxylase assay; format: biochemical; settings: 83°C, pH 8.3, Mg2+, strictly anaerobic; value previously reported by same laboratory (ref 17), run in parallel; read-out: KRuBP ^a /; cited from earlier work
A. fulgidus RbcL2 [2] = target: T2, A. fulgidus RbcL2 (Archaeoglobus fulgidus, UniProt O28635, M295D); assay: radiometric […]-bicarbonate carboxylase assay; format: biochemical; settings: 83°C, pH 8.3, Mg2+, strictly anaerobic; value previously reported by same laboratory (ref 17), run in parallel; read-out: KRuBP ^a /; cited from earlier work
T2 construct: gene rbcL; recombinant in E. coli BL-21(DE3) from pET11a, untagged, purified anaerobically to homogeneity; homodimer

purified protein [3] = substrate: O=C(COP(=O)(O)O)[C@H](O)[C@H](O)COP(=O)(O)O; assay: purified protein; format: biochemical, Thermococcus kodakarensis; settings: 83°C, pH 8.3, Mg2+, strictly anaerobic
purified protein [4] = substrate: O=C(COP(=O)(O)O)[C@H](O)[C@H](O)COP(=O)(O)O; assay: purified protein; format: biochemical, Archaeoglobus fulgidus; settings: 83°C, pH 8.3, Mg2+, strictly anaerobic

T2 sequence (O28635 whole entry M295D): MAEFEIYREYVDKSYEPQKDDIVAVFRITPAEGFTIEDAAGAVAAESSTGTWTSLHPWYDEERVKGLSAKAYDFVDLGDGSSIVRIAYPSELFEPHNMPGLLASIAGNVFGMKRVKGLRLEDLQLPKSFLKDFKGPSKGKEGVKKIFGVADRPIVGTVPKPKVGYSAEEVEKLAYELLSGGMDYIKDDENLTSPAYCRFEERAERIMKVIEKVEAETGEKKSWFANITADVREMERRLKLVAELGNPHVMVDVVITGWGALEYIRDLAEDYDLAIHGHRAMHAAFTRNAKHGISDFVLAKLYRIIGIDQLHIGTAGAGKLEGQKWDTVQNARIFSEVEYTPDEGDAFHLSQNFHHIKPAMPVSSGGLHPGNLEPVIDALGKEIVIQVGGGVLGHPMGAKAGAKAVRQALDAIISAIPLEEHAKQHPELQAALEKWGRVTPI

Row | Molecule | Km (purified protein [4]; kcat determined at 4–6 x KRuBP) | kcat (purified protein [4]; kcat determined at 4–6 x KRuBP) | other results
1 | O=C(COP(=O)(O)O)[C@H](O)[C@H](O)COP(=O)(O)O [RuBP] | – | – | Km (A. fulgidus RbcL2 [1]): 20 ± 5 µM; Km (A. fulgidus RbcL2 [2]): 21 ± 3 µM
2 | T. kodakaraensis RbcL (Thermococcus kodakarensis KOD1) (protein, recombinant in E. coli BL-21(DE3) from pET11a, untagged, purified anaerobically to homogeneity; reported decamer) MVEKFDTIYDYYVDKGYEPSKKRDIIAVFRVTPAEGYTIEQAAGAVAAESSTGTWTTLYPWYEQERWADLSAKAYDFHDMGDGSWIVRIAYPFHAFEEANLPGLLASIAGNIFGMKRVKGLRLEDLYFPEKLIREFDGPAFGIEGVRKMLEIKDRPIYGVVPKPKVGYSPEEFEKLAYDLLSNGADYMKDDENLTSPWYNRFEERAEIMAKIIDKVENETGEKKTWFANITADLLEMEQRLEVLADLGLKHAMVDVVITGWGALRYIRDLAADYGLAIHGHRAMHAAFTRNPYHGISMFVLAKLYRLIGIDQLHVGTAGAGKLEGGKWDVIQNARILRESHYKPDENDVFHLEQKFYSIKAAFPTSSGGLHPGNIQPVIEALGTDIVLQLGGGTLGHPDGPAAGARAVRQAIDAIMQGIPLDEYAKTHKELARALEKWGHVTPV | – | – | Km (purified protein [3]): 14 ± 2 µM; kcat (purified protein [3]): 16.6 s⁻¹
3 | A. fulgidus RbcL2 (Archaeoglobus fulgidus DSM 4304; S363I) (protein, recombinant in E. coli BL-21(DE3) from pET11a, untagged, purified anaerobically to homogeneity; homodimer) MAEFEIYREYVDKSYEPQKDDIVAVFRITPAEGFTIEDAAGAVAAESSTGTWTSLHPWYDEERVKGLSAKAYDFVDLGDGSSIVRIAYPSELFEPHNMPGLLASIAGNVFGMKRVKGLRLEDLQLPKSFLKDFKGPSKGKEGVKKIFGVADRPIVGTVPKPKVGYSAEEVEKLAYELLSGGMDYIKDDENLTSPAYCRFEERAERIMKVIEKVEAETGEKKSWFANITADVREMERRLKLVAELGNPHVMVDVVITGWGALEYIRDLAEDYDLAIHGHRAMHAAFTRNAKHGISMFVLAKLYRIIGIDQLHIGTAGAGKLEGQKWDTVQNARIFSEVEYTPDEGDAFHLSQNFHHIKPAMPVISGGLHPGNLEPVIDALGKEIVIQVGGGVLGHPMGAKAGAKAVRQALDAIISAIPLEEHAKQHPELQAALEKWGRVTPI | – | – | Km (purified protein [4]): 570 ± 94 µM; kcat (purified protein [4]): 9.5 s⁻¹
4 | A. fulgidus RbcL2 (Archaeoglobus fulgidus DSM 4304; S363V) (protein, recombinant in E. coli BL-21(DE3) from pET11a, untagged, purified anaerobically to homogeneity; homodimer) MAEFEIYREYVDKSYEPQKDDIVAVFRITPAEGFTIEDAAGAVAAESSTGTWTSLHPWYDEERVKGLSAKAYDFVDLGDGSSIVRIAYPSELFEPHNMPGLLASIAGNVFGMKRVKGLRLEDLQLPKSFLKDFKGPSKGKEGVKKIFGVADRPIVGTVPKPKVGYSAEEVEKLAYELLSGGMDYIKDDENLTSPAYCRFEERAERIMKVIEKVEAETGEKKSWFANITADVREMERRLKLVAELGNPHVMVDVVITGWGALEYIRDLAEDYDLAIHGHRAMHAAFTRNAKHGISMFVLAKLYRIIGIDQLHIGTAGAGKLEGQKWDTVQNARIFSEVEYTPDEGDAFHLSQNFHHIKPAMPVVSGGLHPGNLEPVIDALGKEIVIQVGGGVLGHPMGAKAGAKAVRQALDAIISAIPLEEHAKQHPELQAALEKWGRVTPI | 118 ± 6 µM | 12.4 s⁻¹ | –
5 | A. fulgidus RbcL2 (Archaeoglobus fulgidus DSM 4304; M295D/S363I) (protein, recombinant in E. coli BL-21(DE3) from pET11a, untagged, purified anaerobically to homogeneity; homodimer) MAEFEIYREYVDKSYEPQKDDIVAVFRITPAEGFTIEDAAGAVAAESSTGTWTSLHPWYDEERVKGLSAKAYDFVDLGDGSSIVRIAYPSELFEPHNMPGLLASIAGNVFGMKRVKGLRLEDLQLPKSFLKDFKGPSKGKEGVKKIFGVADRPIVGTVPKPKVGYSAEEVEKLAYELLSGGMDYIKDDENLTSPAYCRFEERAERIMKVIEKVEAETGEKKSWFANITADVREMERRLKLVAELGNPHVMVDVVITGWGALEYIRDLAEDYDLAIHGHRAMHAAFTRNAKHGISDFVLAKLYRIIGIDQLHIGTAGAGKLEGQKWDTVQNARIFSEVEYTPDEGDAFHLSQNFHHIKPAMPVISGGLHPGNLEPVIDALGKEIVIQVGGGVLGHPMGAKAGAKAVRQALDAIISAIPLEEHAKQHPELQAALEKWGRVTPI | 1646 ± 310 µM | 0.7 s⁻¹ | –
6 | A. fulgidus RbcL2 (Archaeoglobus fulgidus DSM 4304; M295D/S363V) (protein, recombinant in E. coli BL-21(DE3) from pET11a, untagged, purified anaerobically to homogeneity; homodimer) MAEFEIYREYVDKSYEPQKDDIVAVFRITPAEGFTIEDAAGAVAAESSTGTWTSLHPWYDEERVKGLSAKAYDFVDLGDGSSIVRIAYPSELFEPHNMPGLLASIAGNVFGMKRVKGLRLEDLQLPKSFLKDFKGPSKGKEGVKKIFGVADRPIVGTVPKPKVGYSAEEVEKLAYELLSGGMDYIKDDENLTSPAYCRFEERAERIMKVIEKVEAETGEKKSWFANITADVREMERRLKLVAELGNPHVMVDVVITGWGALEYIRDLAEDYDLAIHGHRAMHAAFTRNAKHGISDFVLAKLYRIIGIDQLHIGTAGAGKLEGQKWDTVQNARIFSEVEYTPDEGDAFHLSQNFHHIKPAMPVVSGGLHPGNLEPVIDALGKEIVIQVGGGVLGHPMGAKAGAKAVRQALDAIISAIPLEEHAKQHPELQAALEKWGRVTPI | 1381 ± 88 µM | 4.3 s⁻¹ | –
